Test results from the Human Domainome abundance scans (Beltran et al. 2025).

B1: Histone-lysine N-methyltransferase SETD2, residues 2382 to 2430; numbered along this chain, Q9BYW2 (parent)
chain: SPPKPKTIVLPPNWKTARDPEGKIYYYHVITRQTQWDPPTWESPGDDAS

Variants of: B1
Test: abundance fitness (aPCA) (normalised: wild type 0, dead -1); higher = more abundant; growth selection in yeast, the domain comes from the species named
Settings: Homo sapiens

Abundance fitness, by site and new letter:
Y26: I -0.782; C -0.853; G -0.934; N -0.517; P -0.765; L -0.878; E -0.981; D -0.553; F -0.315; A -0.865; W -0.498; M -0.694; S -0.786; K -0.655; T -0.637; Q -0.777; V -0.585; H -0.618
Y25: F -0.227; R -0.628; I -0.38; W -0.907; P -0.784; T -0.73; G -0.844; C -0.538; K -0.569; Q -0.454; N -0.911; H -0.419; M -0.56; L -0.358; S -0.628; V -0.395; A -0.642; D -0.485
I24: W -0.123; A -0.253; T -0.228; Y -0.336; V -0.406; G -0.578; H -0.549
G22: H -0.484; L -0.593; N -0.555; V -0.782; T -1.02; M -0.636; E -1.1; K -0.482; R -0.607; S -0.297; D -0.128; Q -0.841; A -0.844; F -0.733; I -0.753; C -0.882; W -0.224
V29: W -0.564; Y -0.258; E 0.139; H -0.208; M 0.079; C -0.074; N -0.644; S -0.002; K -0.255; A 0.011; Q -0.018; R -0.428; T 0.145; L -0.287; G -0.309
H28: Q -0.64; C -0.792; F -0.94; N 0.023; G -1.01; R -1.03; A -1.06; V -0.991; Y -0.6; W -1.05; S -0.767; M -1.01; D -0.213; L -1.09; K -0.971; E -0.689
T34: Q -0.111; N -0.493; I -0.149; W -0.18; L -0.342; C -0.109; F -0.059; M 0.188; R 0.109; Y -0.52; G -0.379; A -0.296; K -0.605; E -0.394; P -0.29; D -0.774; V -0.075; H -0.059
R32: T -1.01; Y -0.215; P -0.617; F -0.691; S -0.363; W -0.848; N 0.031; H -0.131; L -0.315; Q -0.022; K 0.13; E -0.197; D -0.027; I -0.997; M -0.15; V -1.01; G -0.173; A -0.304; C -0.357
Q33: E 0.099; M -0.614; I -0.551; D -0.185; V -0.251; H -0.578; G -0.798; R -0.318; W -0.751; K -0.401; F -0.906; C -0.251; T -0.13; P -0.904; L -0.411; A -0.149; N -0.117
T31: W -1.06; P -0.785; H -0.761; D -0.724; L -0.748; R -0.502; N -0.798; S -0.131; I -0.945; M -0.862; E -0.735; Y -0.831; A -0.742; K -0.651; Q -0.627; G -0.927
E21: Q -0.217; L -0.487; G -0.003; V -0.275; I -0.316; C -0.134; M -0.059; T -0.229; W -0.345; S 0.098; H -0.737; D -0.136; A -0.126; F -0.115; P -0.989; R -0.043; Y -0.552; K 0.134
D37: F -0.68; N -0.298; A -0.049; M -0.184; I 0.005; L -0.159; C -0.07; K -0.061; P -0.48; E 0.049
P20: S -0.106; Q 0.015; W -0.367; N -0.008; L -0.223; R 0.017; V -0.31; A -0.166; C -0.348; T 0.006; M -0.078; H -0.157; G -0.03; F -0.398; K 0.122; D -0.122; I -0.165; Y -0.331; E -0.074
K23: S -0.279; V -0.303; C -0.402; N -0.563; H -0.686; A -0.288; E -0.433; L -0.457; R 0.029; Q -0.28; G -0.243; D -0.493; M -0.514; T -0.147; W -0.789; Y -0.316; F -0.619; I -0.447
A17: W -0.77; T -0.217; V -0.242; R 0.023; S -0.155; Y -0.128
W36: T -0.05; K -0.006; M -0.382; R 0.139; S 0.171; D -0.015; F 0.321; L -0.082; I 0.139; A -0.239; V 0.083; H 0.33; E -0.027; G -0.152; Q -0.139; Y 0.203; C -0.08
Y27: V -0.173; M -0.339; T -0.185; H -0.293; R -0.265; P -0.898; D -0.446; W -0.163; G -0.747; K -0.261; F -0.487; E -0.3; S -0.433; C -0.543; L -0.534; Q -0.136
R18: H -0.286; F -0.424; T -0.112; D -0.817; P -0.576; N 0.099; K -0.072; I -0.095; A -0.467; V -0.26; Y -0.105; L -0.404; E -0.248; W -0.31; Q -0.482; S -0.543; G -0.79; M -0.086
Q35: I -0.505; G -0.735; D -0.869; W -0.722; M -0.074; C -0.337; N -0.875; H -0.083; S -0.062; A -0.155; L -0.364; V -0.212; Y -0.489; T -0.052; E -0.547; K -0.351; P -0.535; F -0.683
I30: E -0.307; T -0.013; C -0.498; Y -0.244; Q -0.268; G -0.313; F -0.361; A -0.314; N -0.046; D -0.21; H -0.068; S -0.344; R -0.018; L -0.087; P -0.08; K -0.144; M -0.19; W -0.447
D19: C -0.725; I -0.584; L -0.407; R -0.535; W -0.889; Y -0.601; A -0.537; S -0.103; P -0.426; E -0.314; V -0.404; H 0.027; T 0.102; Q -0.442; M -0.172
